Test results published in paper PMC2935574 (The Journal of Cell Biology, 2010).
“And” between values parts separate entries of the source, which are not always exact repeats. Identical values can stand only once. Values belong to the molecule of their own block, whether it stands above or below them.

Legend:
[1] = target: fluorescein-labeled synthetic peptides encompassing residues 205–217 or 202–219 of NSL1; assay: fluorescence polarisation
[2] = target: T1, KNL1^2106–2316 (C-terminal region of KNL1) (human, UniProt Q8NG31-2 2106-2316); assay: ITC
T1 sequence (looked up): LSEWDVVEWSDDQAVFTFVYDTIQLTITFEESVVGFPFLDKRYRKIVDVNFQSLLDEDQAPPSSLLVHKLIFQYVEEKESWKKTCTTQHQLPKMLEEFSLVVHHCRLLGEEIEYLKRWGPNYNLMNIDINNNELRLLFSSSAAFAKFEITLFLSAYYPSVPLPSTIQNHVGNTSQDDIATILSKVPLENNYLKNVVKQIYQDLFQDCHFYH

[3] = target: T2, NDC80 complex (four-subunit NDC80C) (human, UniProt O14777 1-642; Q9BZD4 1-464; Q8NBT2 1-197; Q9HBM1 1-224); assay: SEC
T2 sequence (O14777 whole entry, chain 1 of 4): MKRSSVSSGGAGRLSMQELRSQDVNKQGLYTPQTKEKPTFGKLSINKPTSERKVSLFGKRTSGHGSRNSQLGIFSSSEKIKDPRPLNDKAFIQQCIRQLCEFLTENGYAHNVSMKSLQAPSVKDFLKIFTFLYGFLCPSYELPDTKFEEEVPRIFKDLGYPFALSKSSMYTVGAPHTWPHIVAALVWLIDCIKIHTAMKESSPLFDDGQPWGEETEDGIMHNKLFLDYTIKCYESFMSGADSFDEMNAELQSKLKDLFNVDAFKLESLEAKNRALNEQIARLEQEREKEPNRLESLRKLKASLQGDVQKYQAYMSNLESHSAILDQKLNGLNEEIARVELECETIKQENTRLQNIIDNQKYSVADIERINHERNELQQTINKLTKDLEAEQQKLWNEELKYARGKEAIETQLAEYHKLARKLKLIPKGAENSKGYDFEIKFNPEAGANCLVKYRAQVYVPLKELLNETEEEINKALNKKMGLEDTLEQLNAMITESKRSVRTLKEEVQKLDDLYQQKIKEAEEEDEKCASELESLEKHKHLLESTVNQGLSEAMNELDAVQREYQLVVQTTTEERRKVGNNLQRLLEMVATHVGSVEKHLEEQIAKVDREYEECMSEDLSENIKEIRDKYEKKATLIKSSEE
T2 sequence (Q9BZD4 whole entry, chain 2 of 4): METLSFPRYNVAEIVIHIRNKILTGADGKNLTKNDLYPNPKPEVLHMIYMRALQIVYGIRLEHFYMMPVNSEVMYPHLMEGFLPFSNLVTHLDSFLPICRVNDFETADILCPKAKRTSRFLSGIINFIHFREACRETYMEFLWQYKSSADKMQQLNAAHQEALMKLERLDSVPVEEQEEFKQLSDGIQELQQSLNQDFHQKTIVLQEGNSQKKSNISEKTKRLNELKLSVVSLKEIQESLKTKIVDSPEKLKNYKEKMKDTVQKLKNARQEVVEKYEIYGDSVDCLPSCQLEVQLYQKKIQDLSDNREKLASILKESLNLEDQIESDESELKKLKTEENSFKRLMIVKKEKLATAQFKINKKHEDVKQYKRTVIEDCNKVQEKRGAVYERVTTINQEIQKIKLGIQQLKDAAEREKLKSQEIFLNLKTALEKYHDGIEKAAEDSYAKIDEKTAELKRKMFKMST
T2 sequence (Q8NBT2 whole entry, chain 3 of 4): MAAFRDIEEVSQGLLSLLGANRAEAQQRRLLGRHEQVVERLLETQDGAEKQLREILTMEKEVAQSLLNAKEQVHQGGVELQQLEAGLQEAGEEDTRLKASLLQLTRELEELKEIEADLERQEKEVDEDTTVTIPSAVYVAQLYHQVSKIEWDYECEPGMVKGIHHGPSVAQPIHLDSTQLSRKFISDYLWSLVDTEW
T2 sequence (Q9HBM1 whole entry, chain 4 of 4): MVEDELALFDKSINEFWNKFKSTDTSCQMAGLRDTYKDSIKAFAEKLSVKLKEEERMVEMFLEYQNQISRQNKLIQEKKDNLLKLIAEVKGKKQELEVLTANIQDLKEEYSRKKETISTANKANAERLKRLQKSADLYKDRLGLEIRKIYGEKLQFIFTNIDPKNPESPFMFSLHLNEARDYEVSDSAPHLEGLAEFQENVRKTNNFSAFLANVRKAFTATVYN

[4] = target: T2, NDC80 complex (four-subunit NDC80C); assay: ITC

Molecule: HP1^110–191 (chromoshadow domain of HP1-α) (from UniProt P45973 110-191) (domain or fragment)
Kd [1]: 400 to 500 nM

B3: MIS12C^NSL1-258 (MIS12 complex with NSL1 residues 1–258) (complex, human)
chain 1: MSVDPMTYEAQFFGFTPQTCMLRIYIAFQDYLFEVMQAVEQVILKKLDGIPDCDISPVQIRKCTEKFLCFMKGHFDNLFSKMEQLFLQLILRIPSNILLPEDKCKETPYSEEDFQHLQKEIEQLQEKYKTELCTKQALLAELEEQKIVQAKLKQTLTFFDELHNVGRDHGTSDFRESLVSLVQNSRKLQNIRDNVEKESKRLKIS
chain 2: MAEASSANLGSGCEEKRHEGSSSESVPPGTTISRVKLLDTMVDTFLQKLVAAGSYQRFTDCYKCFYQLQPAMTQQIYDKFIAQLQTSIREEISDIKEEGNLEAVLNALDKIVEEGKVRKEPAWRPSGIPEKDLHSVMAPYFLQQRDTLRRHVQKQEAENQQLADAVLAGRRQVEELQLQVQAQQQAWQALHREQRELVAVLREPE
chain 3: MTSVTRSEIIDEKGPVMSKTHDHQLESSLSPVEVFAKTSASLEMNQGVSEERIHLGSSPKKGGNCDLSHQERLQSKSLHLSPQEQSASYQDRRQSWRRASMKETNRRKSLHPIHQGITELSRSISVDLAESKRLGCLLLSSFQFSIQKLEPFLRDTKGFSLESFRAKASSLSEELKHFADGLETDGTLQKCFEDSNGKASDFSLEASVAEMKEYITKFSLERQTWDQLLLHYQQEAKEILSRGSTEAKITEVKVEPMTYLGSSQNEVLNTKPDYQKILQNQSKVFDCMELVMDELQGSVKQLQAFMDESTQCFQKVSVQLGKRSMQQLDPSPARKLLKLQLQNPPAIHGSGSGSCQ
chain 4: MAGSPELVVLDPPWDKELAAGTESQALVSATPREDFRVRCTSKRAVTEMLQLCGRFVQKLGDALPEEIREPALRDAQWTFESAVQENISINGQAWQEASDNCFMDSDIKVLEDQFDEIIVDIATKRKQYPRKILECVIKTIKAKQEILKQYHPVVHPLDLKYDPDPAPHMENLKCRGETVAKEISEAMKSLPALIEQGEGFSQVLRMQPVIHLQRIHQEVFSSCHRKPDAKPENFITQIETTPTETASRKTSDMVLKR
Kd [4]: ~10 nM

B4: MIS12C–KNL1^2106–2316 (five-subunit complex) (complex, human)
chain 1: MSVDPMTYEAQFFGFTPQTCMLRIYIAFQDYLFEVMQAVEQVILKKLDGIPDCDISPVQIRKCTEKFLCFMKGHFDNLFSKMEQLFLQLILRIPSNILLPEDKCKETPYSEEDFQHLQKEIEQLQEKYKTELCTKQALLAELEEQKIVQAKLKQTLTFFDELHNVGRDHGTSDFRESLVSLVQNSRKLQNIRDNVEKESKRLKIS
chain 2: MAEASSANLGSGCEEKRHEGSSSESVPPGTTISRVKLLDTMVDTFLQKLVAAGSYQRFTDCYKCFYQLQPAMTQQIYDKFIAQLQTSIREEISDIKEEGNLEAVLNALDKIVEEGKVRKEPAWRPSGIPEKDLHSVMAPYFLQQRDTLRRHVQKQEAENQQLADAVLAGRRQVEELQLQVQAQQQAWQALHREQRELVAVLREPE
chain 3: MTSVTRSEIIDEKGPVMSKTHDHQLESSLSPVEVFAKTSASLEMNQGVSEERIHLGSSPKKGGNCDLSHQERLQSKSLHLSPQEQSASYQDRRQSWRRASMKETNRRKSLHPIHQGITELSRSISVDLAESKRLGCLLLSSFQFSIQKLEPFLRDTKGFSLESFRAKASSLSEELKHFADGLETDGTLQKCFEDSNGKASDFSLEASVAEMKEYITKFSLERQTWDQLLLHYQQEAKEILSRGSTEAKITEVKVEPMTYLGSSQNEVLNTKPDYQKILQNQSKVFDCMELVMDELQGSVKQLQAFMDESTQCFQKVSVQLGKRSMQQLDPSPARKLLKLQLQNPPAIHGSGSGSCQ
chain 4: MAGSPELVVLDPPWDKELAAGTESQALVSATPREDFRVRCTSKRAVTEMLQLCGRFVQKLGDALPEEIREPALRDAQWTFESAVQENISINGQAWQEASDNCFMDSDIKVLEDQFDEIIVDIATKRKQYPRKILECVIKTIKAKQEILKQYHPVVHPLDLKYDPDPAPHMENLKCRGETVAKEISEAMKSLPALIEQGEGFSQVLRMQPVIHLQRIHQEVFSSCHRKPDAKPENFITQIETTPTETASRKTSDMVLKRKQTKDCPQRKWYPLRPKKINLDT
chain 5: LSEWDVVEWSDDQAVFTFVYDTIQLTITFEESVVGFPFLDKRYRKIVDVNFQSLLDEDQAPPSSLLVHKLIFQYVEEKESWKKTCTTQHQLPKMLEEFSLVVHHCRLLGEEIEYLKRWGPNYNLMNIDINNNELRLLFSSSAAFAKFEITLFLSAYYPSVPLPSTIQNHVGNTSQDDIATILSKVPLENNYLKNVVKQIYQDLFQDCHFYH
Kd [4]: 4 nM

The remaining lines, values ahead:

Kd [2]: ~63 nM and ~130 nM
stoichiometry N [2]: 1
B1: NSL1^227–281 (C-terminal tail of NSL1) (domain or fragment, human, UniProt Q96IY1 227-281, looked up)
chain: KPDAKPENFITQIETTPTETASRKTSDMVLKRKQTKDCPQRKWYPLRPKKINLDT

binding result [3]: binds
B2: MIS12C^NSL1-227 (MIS12 complex with a more extensive C-terminal deletion of NSL1) (complex, human)
chain 1: MSVDPMTYEAQFFGFTPQTCMLRIYIAFQDYLFEVMQAVEQVILKKLDGIPDCDISPVQIRKCTEKFLCFMKGHFDNLFSKMEQLFLQLILRIPSNILLPEDKCKETPYSEEDFQHLQKEIEQLQEKYKTELCTKQALLAELEEQKIVQAKLKQTLTFFDELHNVGRDHGTSDFRESLVSLVQNSRKLQNIRDNVEKESKRLKIS
chain 2: MAEASSANLGSGCEEKRHEGSSSESVPPGTTISRVKLLDTMVDTFLQKLVAAGSYQRFTDCYKCFYQLQPAMTQQIYDKFIAQLQTSIREEISDIKEEGNLEAVLNALDKIVEEGKVRKEPAWRPSGIPEKDLHSVMAPYFLQQRDTLRRHVQKQEAENQQLADAVLAGRRQVEELQLQVQAQQQAWQALHREQRELVAVLREPE
chain 3: MTSVTRSEIIDEKGPVMSKTHDHQLESSLSPVEVFAKTSASLEMNQGVSEERIHLGSSPKKGGNCDLSHQERLQSKSLHLSPQEQSASYQDRRQSWRRASMKETNRRKSLHPIHQGITELSRSISVDLAESKRLGCLLLSSFQFSIQKLEPFLRDTKGFSLESFRAKASSLSEELKHFADGLETDGTLQKCFEDSNGKASDFSLEASVAEMKEYITKFSLERQTWDQLLLHYQQEAKEILSRGSTEAKITEVKVEPMTYLGSSQNEVLNTKPDYQKILQNQSKVFDCMELVMDELQGSVKQLQAFMDESTQCFQKVSVQLGKRSMQQLDPSPARKLLKLQLQNPPAIHGSGSGSCQ
chain 4: MAGSPELVVLDPPWDKELAAGTESQALVSATPREDFRVRCTSKRAVTEMLQLCGRFVQKLGDALPEEIREPALRDAQWTFESAVQENISINGQAWQEASDNCFMDSDIKVLEDQFDEIIVDIATKRKQYPRKILECVIKTIKAKQEILKQYHPVVHPLDLKYDPDPAPHMENLKCRGETVAKEISEAMKSLPALIEQGEGFSQVLRMQPVIHLQRIHQEVFSSCHRK
